This assay addresses Human C3 (human, UniProt P01024 23-1663). Nature of the assay: cell-based or functional assay.

Starred links: 1 amine or outer side, 2 acyl side, 3 side chain; linkers in the order of their positions; H or OH if unused. Positions of bridges follow the written chain, without caps; N, C: chain ends. Non-standard residues stand in square brackets, D forms with d. Groups on a side chain read outwards from the residue. *: point of attachment. Trp(1-Me) = Cn1cc(C[C@H](N)C(=O)O)c2ccccc21; C18 diacid = O=C(O)CCCCCCCCCCCCCCCCC(=O)*; C16 diacid = O=C(O)CCCCCCCCCCCCCCC(=O)*; γGlu = O=C(O)[C@H](CCC(=O)[*:2])N[*:1]; AEEA = NCCOCCOCC(=O)O; Sar = CNCC(=O)O

Chain of Human C3 (P01024 23-1663 limits assumed): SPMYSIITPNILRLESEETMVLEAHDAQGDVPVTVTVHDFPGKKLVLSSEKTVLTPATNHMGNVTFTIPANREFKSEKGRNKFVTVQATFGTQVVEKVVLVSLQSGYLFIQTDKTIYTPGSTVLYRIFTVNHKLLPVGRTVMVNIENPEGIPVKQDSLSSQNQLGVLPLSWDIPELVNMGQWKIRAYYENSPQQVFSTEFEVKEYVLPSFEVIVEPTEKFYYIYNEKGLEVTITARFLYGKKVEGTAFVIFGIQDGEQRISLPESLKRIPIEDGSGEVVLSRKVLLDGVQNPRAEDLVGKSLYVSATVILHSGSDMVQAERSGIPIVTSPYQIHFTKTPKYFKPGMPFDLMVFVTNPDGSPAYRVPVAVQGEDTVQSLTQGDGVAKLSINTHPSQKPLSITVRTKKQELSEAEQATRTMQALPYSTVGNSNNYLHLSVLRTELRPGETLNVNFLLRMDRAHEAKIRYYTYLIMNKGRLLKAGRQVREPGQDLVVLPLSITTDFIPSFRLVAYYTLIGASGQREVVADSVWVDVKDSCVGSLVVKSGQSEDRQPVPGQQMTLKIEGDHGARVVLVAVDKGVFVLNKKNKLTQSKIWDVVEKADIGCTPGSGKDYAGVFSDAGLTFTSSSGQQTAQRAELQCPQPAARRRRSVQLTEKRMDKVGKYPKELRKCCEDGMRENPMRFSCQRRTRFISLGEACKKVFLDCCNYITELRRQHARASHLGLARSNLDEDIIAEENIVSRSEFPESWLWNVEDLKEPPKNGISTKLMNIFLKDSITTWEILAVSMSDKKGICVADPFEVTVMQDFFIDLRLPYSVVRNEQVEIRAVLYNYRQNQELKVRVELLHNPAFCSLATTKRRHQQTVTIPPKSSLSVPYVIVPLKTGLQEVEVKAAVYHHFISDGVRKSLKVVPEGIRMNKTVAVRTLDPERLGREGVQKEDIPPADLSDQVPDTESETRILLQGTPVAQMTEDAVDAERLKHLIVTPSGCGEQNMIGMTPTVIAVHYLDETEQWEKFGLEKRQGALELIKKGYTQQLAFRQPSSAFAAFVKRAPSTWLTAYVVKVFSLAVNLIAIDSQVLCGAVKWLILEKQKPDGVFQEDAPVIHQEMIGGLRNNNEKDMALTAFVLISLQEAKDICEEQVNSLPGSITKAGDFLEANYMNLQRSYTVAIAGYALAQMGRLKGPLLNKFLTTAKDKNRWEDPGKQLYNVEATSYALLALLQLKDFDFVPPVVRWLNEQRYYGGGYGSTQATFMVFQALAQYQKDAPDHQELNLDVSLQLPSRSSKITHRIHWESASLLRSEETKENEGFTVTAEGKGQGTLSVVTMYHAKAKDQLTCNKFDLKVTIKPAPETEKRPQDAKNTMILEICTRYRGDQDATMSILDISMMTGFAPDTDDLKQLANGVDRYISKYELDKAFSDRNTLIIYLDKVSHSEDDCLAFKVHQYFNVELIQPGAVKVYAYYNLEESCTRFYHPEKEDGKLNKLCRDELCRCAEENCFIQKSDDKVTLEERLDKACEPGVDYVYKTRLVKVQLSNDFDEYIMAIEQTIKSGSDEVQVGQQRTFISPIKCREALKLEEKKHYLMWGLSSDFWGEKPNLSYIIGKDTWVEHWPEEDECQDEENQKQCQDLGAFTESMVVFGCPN

B1: Compound 108 (peptide)
peptide: {C18 diacid}-EGSEYCI[Trp(1-Me)]QDWGEHRC[Sar]E-NH2
modifications: disulfide 6-16
SMILES: CC[C@H](C)[C@@H]1NC(=O)[C@@H](NC(=O)[C@H](Cc2ccc(O)cc2)NC(=O)[C@H](CCC(=O)O)NC(=O)[C@H](CO)NC(=O)CNC(=O)[C@H](CCC(=O)O)NC(=O)CCCCCCCCCCCCCCCCC(=O)O)CSSC[C@@H](C(=O)N(C)CC(=O)N[C@@H](CCC(=O)O)C(N)=O)NC(=O)[C@H](CCCNC(=N)N)NC(=O)[C@H](Cc2c[nH]cn2)NC(=O)[C@H](CCC(=O)O)NC(=O)CNC(=O)[C@H](Cc2c[nH]c3ccccc23)NC(=O)[C@H](CC(=O)O)NC(=O)[C@H](CCC(N)=O)NC(=O)[C@H](Cc2cn(C)c3ccccc23)NC1=O
Turning to B1, the IC50[nM], inhibition of hemolysis is less than 500 nM.

B2: Compound 129 (peptide)
peptide: Ac-SEFCI[Trp(1-Me)]QDWGEHRC[Sar]EGEGGGK([γGlu-Gly-γGlu-C18 diacid])-NH2
modifications: disulfide 4-14
SMILES: CC[C@H](C)[C@@H]1NC(=O)[C@@H](NC(=O)[C@H](Cc2ccccc2)NC(=O)[C@H](CCC(=O)O)NC(=O)[C@H](CO)NC(C)=O)CSSC[C@@H](C(=O)N(C)CC(=O)N[C@@H](CCC(=O)O)C(=O)NCC(=O)N[C@@H](CCC(=O)O)C(=O)NCC(=O)NCC(=O)NCC(=O)N[C@@H](CCCCNC(=O)CC[C@H](NC(=O)CNC(=O)CC[C@H](NC(=O)CCCCCCCCCCCCCCCCC(=O)O)C(=O)O)C(=O)O)C(N)=O)NC(=O)[C@H](CCCNC(=N)N)NC(=O)[C@H](Cc2c[nH]cn2)NC(=O)[C@H](CCC(=O)O)NC(=O)CNC(=O)[C@H](Cc2c[nH]c3ccccc23)NC(=O)[C@H](CC(=O)O)NC(=O)[C@H](CCC(N)=O)NC(=O)[C@H](Cc2cn(C)c3ccccc23)NC1=O
Consider B2, for which the IC50[nM], inhibition of hemolysis is less than 100 nM.

B3: Compound 113 (peptide)
peptide: Ac-ASGEYCI[Trp(1-Me)]QDWGEHRC[Sar]EGEK([γGlu-Gly-γGlu-C18 diacid])-NH2
modifications: disulfide 6-16
SMILES: CC[C@H](C)[C@@H]1NC(=O)[C@@H](NC(=O)[C@H](Cc2ccc(O)cc2)NC(=O)[C@H](CCC(=O)O)NC(=O)CNC(=O)[C@H](CO)NC(=O)[C@H](C)NC(C)=O)CSSC[C@@H](C(=O)N(C)CC(=O)N[C@@H](CCC(=O)O)C(=O)NCC(=O)N[C@@H](CCC(=O)O)C(=O)N[C@@H](CCCCNC(=O)CC[C@H](NC(=O)CNC(=O)CC[C@H](NC(=O)CCCCCCCCCCCCCCCCC(=O)O)C(=O)O)C(=O)O)C(N)=O)NC(=O)[C@H](CCCNC(=N)N)NC(=O)[C@H](Cc2c[nH]cn2)NC(=O)[C@H](CCC(=O)O)NC(=O)CNC(=O)[C@H](Cc2c[nH]c3ccccc23)NC(=O)[C@H](CC(=O)O)NC(=O)[C@H](CCC(N)=O)NC(=O)[C@H](Cc2cn(C)c3ccccc23)NC1=O
In turn, B3 displayed an IC50[nM], inhibition of hemolysis of less than 500 nM.

B4: Compound 110 (peptide)
peptide: Ac-EGSAYCI[Trp(1-Me)]QDWGEHRC[Sar]EGKK([γGlu-Gly-γGlu-C18 diacid])-NH2
modifications: disulfide 6-16
SMILES: CC[C@H](C)[C@@H]1NC(=O)[C@@H](NC(=O)[C@H](Cc2ccc(O)cc2)NC(=O)[C@H](C)NC(=O)[C@H](CO)NC(=O)CNC(=O)[C@H](CCC(=O)O)NC(C)=O)CSSC[C@@H](C(=O)N(C)CC(=O)N[C@@H](CCC(=O)O)C(=O)NCC(=O)N[C@@H](CCCCN)C(=O)N[C@@H](CCCCNC(=O)CC[C@H](NC(=O)CNC(=O)CC[C@H](NC(=O)CCCCCCCCCCCCCCCCC(=O)O)C(=O)O)C(=O)O)C(N)=O)NC(=O)[C@H](CCCNC(=N)N)NC(=O)[C@H](Cc2c[nH]cn2)NC(=O)[C@H](CCC(=O)O)NC(=O)CNC(=O)[C@H](Cc2c[nH]c3ccccc23)NC(=O)[C@H](CC(=O)O)NC(=O)[C@H](CCC(N)=O)NC(=O)[C@H](Cc2cn(C)c3ccccc23)NC1=O
Turning to B4, the IC50[nM], inhibition of hemolysis is less than 250 nM.
For Ac-SEYCI[Trp(1-Me)]QDWGEHRC[Sar]EGEK([γGlu-Lys-γGlu-C18 diacid])-NH2 (disulfide 4-14) [Compound 116], the IC50[nM], inhibition of hemolysis was less than 500 nM.

B5: Compound 115 (peptide)
peptide: Ac-SEYCI[Trp(1-Me)]QDWGEHRC[Sar]EGKK([γGlu-Gly-γGlu-C18 diacid])-NH2
modifications: disulfide 4-14
SMILES: CC[C@H](C)[C@@H]1NC(=O)[C@@H](NC(=O)[C@H](Cc2ccc(O)cc2)NC(=O)[C@H](CCC(=O)O)NC(=O)[C@H](CO)NC(C)=O)CSSC[C@@H](C(=O)N(C)CC(=O)N[C@@H](CCC(=O)O)C(=O)NCC(=O)N[C@@H](CCCCN)C(=O)N[C@@H](CCCCNC(=O)CC[C@H](NC(=O)CNC(=O)CC[C@H](NC(=O)CCCCCCCCCCCCCCCCC(=O)O)C(=O)O)C(=O)O)C(N)=O)NC(=O)[C@H](CCCNC(=N)N)NC(=O)[C@H](Cc2c[nH]cn2)NC(=O)[C@H](CCC(=O)O)NC(=O)CNC(=O)[C@H](Cc2c[nH]c3ccccc23)NC(=O)[C@H](CC(=O)O)NC(=O)[C@H](CCC(N)=O)NC(=O)[C@H](Cc2cn(C)c3ccccc23)NC1=O
Regarding B5, the IC50[nM], inhibition of hemolysis was less than 250 nM.

B6: Compound 103 (peptide)
peptide: Ac-EGSAYCI[Trp(1-Me)]QDWGEHK([AEEA-AEEA-γGlu-C16 diacid])C[Sar]E-NH2
modifications: disulfide 6-16
SMILES: CC[C@H](C)[C@@H]1NC(=O)[C@@H](NC(=O)[C@H](Cc2ccc(O)cc2)NC(=O)[C@H](C)NC(=O)[C@H](CO)NC(=O)CNC(=O)[C@H](CCC(=O)O)NC(C)=O)CSSC[C@@H](C(=O)N(C)CC(=O)N[C@@H](CCC(=O)O)C(N)=O)NC(=O)[C@H](CCCCNC(=O)COCCOCCNC(=O)COCCOCCNC(=O)CC[C@H](NC(=O)CCCCCCCCCCCCCCC(=O)O)C(=O)O)NC(=O)[C@H](Cc2c[nH]cn2)NC(=O)[C@H](CCC(=O)O)NC(=O)CNC(=O)[C@H](Cc2c[nH]c3ccccc23)NC(=O)[C@H](CC(=O)O)NC(=O)[C@H](CCC(N)=O)NC(=O)[C@H](Cc2cn(C)c3ccccc23)NC1=O
For B6, the IC50[nM], inhibition of hemolysis was less than 100 nM.

B7: Compound 114 (peptide)
peptide: Ac-SEYCI[Trp(1-Me)]QDWGEHRC[Sar]EGEK([γGlu-Gly-γGlu-C18 diacid])-NH2
modifications: disulfide 4-14
SMILES: CC[C@H](C)[C@@H]1NC(=O)[C@@H](NC(=O)[C@H](Cc2ccc(O)cc2)NC(=O)[C@H](CCC(=O)O)NC(=O)[C@H](CO)NC(C)=O)CSSC[C@@H](C(=O)N(C)CC(=O)N[C@@H](CCC(=O)O)C(=O)NCC(=O)N[C@@H](CCC(=O)O)C(=O)N[C@@H](CCCCNC(=O)CC[C@H](NC(=O)CNC(=O)CC[C@H](NC(=O)CCCCCCCCCCCCCCCCC(=O)O)C(=O)O)C(=O)O)C(N)=O)NC(=O)[C@H](CCCNC(=N)N)NC(=O)[C@H](Cc2c[nH]cn2)NC(=O)[C@H](CCC(=O)O)NC(=O)CNC(=O)[C@H](Cc2c[nH]c3ccccc23)NC(=O)[C@H](CC(=O)O)NC(=O)[C@H](CCC(N)=O)NC(=O)[C@H](Cc2cn(C)c3ccccc23)NC1=O
As to B7, the IC50[nM], inhibition of hemolysis was less than 500 nM.

B8: Compound 112 (peptide)
peptide: Ac-SEYCI[Trp(1-Me)]QDWGEHRC[Sar]EGAK([γGlu-Gly-γGlu-C18 diacid])-NH2
modifications: disulfide 4-14
SMILES: CC[C@H](C)[C@@H]1NC(=O)[C@@H](NC(=O)[C@H](Cc2ccc(O)cc2)NC(=O)[C@H](CCC(=O)O)NC(=O)[C@H](CO)NC(C)=O)CSSC[C@@H](C(=O)N(C)CC(=O)N[C@@H](CCC(=O)O)C(=O)NCC(=O)N[C@@H](C)C(=O)N[C@@H](CCCCNC(=O)CC[C@H](NC(=O)CNC(=O)CC[C@H](NC(=O)CCCCCCCCCCCCCCCCC(=O)O)C(=O)O)C(=O)O)C(N)=O)NC(=O)[C@H](CCCNC(=N)N)NC(=O)[C@H](Cc2c[nH]cn2)NC(=O)[C@H](CCC(=O)O)NC(=O)CNC(=O)[C@H](Cc2c[nH]c3ccccc23)NC(=O)[C@H](CC(=O)O)NC(=O)[C@H](CCC(N)=O)NC(=O)[C@H](Cc2cn(C)c3ccccc23)NC1=O
Molecule B8 displayed an IC50[nM], inhibition of hemolysis of less than 500 nM.

B9: Compound 131 (peptide)
peptide: Ac-SEFCI[Trp(1-Me)]QDWGEHRCTEGEGGGK([γGlu-Gly-γGlu-C16 diacid])-NH2
modifications: disulfide 4-14
SMILES: CC[C@H](C)[C@@H]1NC(=O)[C@@H](NC(=O)[C@H](Cc2ccccc2)NC(=O)[C@H](CCC(=O)O)NC(=O)[C@H](CO)NC(C)=O)CSSC[C@@H](C(=O)N[C@H](C(=O)N[C@@H](CCC(=O)O)C(=O)NCC(=O)N[C@@H](CCC(=O)O)C(=O)NCC(=O)NCC(=O)NCC(=O)N[C@@H](CCCCNC(=O)CC[C@H](NC(=O)CNC(=O)CC[C@H](NC(=O)CCCCCCCCCCCCCCC(=O)O)C(=O)O)C(=O)O)C(N)=O)[C@@H](C)O)NC(=O)[C@H](CCCNC(=N)N)NC(=O)[C@H](Cc2c[nH]cn2)NC(=O)[C@H](CCC(=O)O)NC(=O)CNC(=O)[C@H](Cc2c[nH]c3ccccc23)NC(=O)[C@H](CC(=O)O)NC(=O)[C@H](CCC(N)=O)NC(=O)[C@H](Cc2cn(C)c3ccccc23)NC1=O
B9 gave an IC50[nM], inhibition of hemolysis of less than 100 nM.

B10: Compound 109 (peptide)
peptide: Ac-EGSAYCI[Trp(1-Me)]QDWGEHRC[Sar]EGEK([γGlu-Gly-γGlu-C18 diacid])-NH2
modifications: disulfide 6-16
SMILES: CC[C@H](C)[C@@H]1NC(=O)[C@@H](NC(=O)[C@H](Cc2ccc(O)cc2)NC(=O)[C@H](C)NC(=O)[C@H](CO)NC(=O)CNC(=O)[C@H](CCC(=O)O)NC(C)=O)CSSC[C@@H](C(=O)N(C)CC(=O)N[C@@H](CCC(=O)O)C(=O)NCC(=O)N[C@@H](CCC(=O)O)C(=O)N[C@@H](CCCCNC(=O)CC[C@H](NC(=O)CNC(=O)CC[C@H](NC(=O)CCCCCCCCCCCCCCCCC(=O)O)C(=O)O)C(=O)O)C(N)=O)NC(=O)[C@H](CCCNC(=N)N)NC(=O)[C@H](Cc2c[nH]cn2)NC(=O)[C@H](CCC(=O)O)NC(=O)CNC(=O)[C@H](Cc2c[nH]c3ccccc23)NC(=O)[C@H](CC(=O)O)NC(=O)[C@H](CCC(N)=O)NC(=O)[C@H](Cc2cn(C)c3ccccc23)NC1=O
B10 showed an IC50[nM], inhibition of hemolysis of less than 250 nM.
With Ac-SAYCI[Trp(1-Me)]QDWGEHRC[Sar]EK([γGlu-Gly-Lys-γGlu-C18 diacid])-NH2 (disulfide 4-14) [Compound 105] the figure was less than 100 nM.

The record behind these values is patent US20220306695A1, “COMPSTATIN ANALOGUES AND THEIR MEDICAL USES” (priority 2019, published 2022).
